Two substances from patent publication US20230398228A1, “ERIBULIN-BASED ANTIBODY-DRUG CONJUGATES AND METHODS OF USE” (EISAI R&D MANAGEMENT CO., LTD., priority 2016, published 2023) can be followed below.

By IC50 is commonly meant the concentration that gives 50% inhibition.

One series can be described thus: DAR analysis by HIC-HPLC. Here is the method:
Samples were injected onto a TSKgel® Ether-5 PW, 7.5 mm ID×7.5 cm, 10 μM pore size, and eluted from the column with a 3 min equilibration in 100% of mobile phase A, a 15 min gradient (0-100% B), a 5 min hold in 100% B, a 1 min change to 100% A, and a 5 min re-equilibration in 100% of mobile phase A, at 0.7 mL/min. Mobile phase A was 25 mM sodium phosphate, 1.5 M ammonium sulfate, pH 7.0. Mobile phase B was 25 mM sodium phosphate, 25% isopropanol, pH 7.0. Detection was done at 280 nm (reference 320 nm). DAR was determined by the formula:
[AUC+1+2(AUC+2)+3(AUC+3)+ . . . n(AUC+n)]/ΣAUCtot]
where AUC+1 is the area under the curve for the mAb peak corresponding to ADC conjugated with one cytotoxin, AUC+2 is the area under the curve for the mAb peak corresponding to ADC conjugated with two cytotoxins, etc. ΣAUCtot is the combined area under the curve for all peaks.
DAR was analyzed using hydrophobic interaction HPLC (HIC-HPLC). Samples were injected onto a TSKgel® Butyl-NP5, 4.6 mm ID×3.5 cm, 2.5 μM nonporous size column (Tosoh Bioscience), and eluted with a 3 min equilibration in 100% of mobile phase A, a 15 min gradient (0-100% B), a 5 min hold in 100% B, a 1 min change to 100% A, and a 5 min re-equilibration in 100% of mobile phase A, at 0.7 mL/min. Mobile phase A was 25 mM sodium phosphate, 1.5 M ammonium sulfate, pH 7.0. […] DAR was determined by the formula: […]

The next series has as its system A431 cells. Briefly: Crystal Violet cytotoxicity assay (Example 4), A431 (parental). The format is cell-based, human. Particulars: mean of replicate experiments, read-out: Cytotoxicity IC50 (nM), A431 (FR^neg, MSLN^neg).
In the next series the test system is IGROV1 cells. Description: Crystal Violet cytotoxicity assay (Example 4), IGROV1. The format is cell-based, human. Particulars: mean of replicate experiments, read-out: Cytotoxicity IC50 (nM), IGROV1 (FR^hi, MSLN^neg). Here is the method:
Test reagents were serial diluted 1:3 in 2 mL deep-well dilution plates, starting at 200 nM (10 dilutions total). […] Medium was then discarded. […] Plates were read at 570 nm. Data was analyzed using GraphPad Prism 6.

On to MORAb009-PEG2-eribulin, for which, in the series “DAR analysis by HIC-HPLC”, the “DAR (HIC-HPLC)” value was 4.30. Besides, the figures for the IC50 in the series on A431 cells and with IGROV1 cells were over 100 nM and 42.8 nM, respectively.

Regarding MORAb009-PEG4-eribulin, in “DAR analysis by HIC-HPLC”, the “DAR (HIC-HPLC)” value was found to be 4.57. Also, the IC50 in the series on A431 cells was over 100 nM; in the series on IGROV1 cells it was 76.3 nM.
